Measurements from US20240262922A1 (Merck KGaA, published 2024).
Substitutions are numbered along the chain they refer to.

T1: mouse OX40L (mouse, UniProt P43488 51-198, limits assumed)
T1 sequence: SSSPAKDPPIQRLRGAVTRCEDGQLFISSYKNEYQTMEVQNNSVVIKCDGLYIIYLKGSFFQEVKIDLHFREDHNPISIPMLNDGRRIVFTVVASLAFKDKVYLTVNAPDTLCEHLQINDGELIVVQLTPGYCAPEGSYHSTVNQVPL

T2: AVI-GST-His6-hOX40L (human, UniProt P23510 51-183)
T2 sequence: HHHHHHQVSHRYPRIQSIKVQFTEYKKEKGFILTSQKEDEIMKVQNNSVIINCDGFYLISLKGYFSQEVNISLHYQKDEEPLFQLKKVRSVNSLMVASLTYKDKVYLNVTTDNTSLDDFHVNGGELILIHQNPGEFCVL

T3: recombinant human OX40L protein (R&D Systems, cat. #1054-OX) (human, UniProt P23510 51-183)
T3 sequence: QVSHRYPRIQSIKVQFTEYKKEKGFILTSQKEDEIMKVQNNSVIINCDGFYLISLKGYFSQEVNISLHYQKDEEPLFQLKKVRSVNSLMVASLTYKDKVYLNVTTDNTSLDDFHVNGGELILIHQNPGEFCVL

T4: recombinant cynomolgus monkey OX40L (Novoprotein cat. #CP72) (cynomolgus monkey, UniProt P23510 51-183 (human entry), limits assumed)
T4 construct: Bought protein; also called cynomolgus OX40L
T4 chain: T3 sequence with R5Q, K23E

B1: 84E11 (IgG) (antibody)
heavy: not shown
light: SSELTQDPAVSVALGQTVRITCQGDSLRNYFANWYQQKPGQAPVLVIYGKNNRPSGIPDRFSGSSSGNTASLTITGAQAEDEADYYCNSRDSSGYHVVFGGGTKLTVLGQPKAAPSVTLFPPSSEELQANKATLVCLISDFYPGAVTVAWKADSSPVKAGVETTTPSKQSNNKYAASSYLSLTPEQWKSHKSYSCQVTHEGSTVEKTVAPTECS
B2: 89B09 (IgG) (antibody)
heavy: not shown
light: SSELTQDPAVSVALGQTVRITCQGDSVRRFFAHWYQQKPGQAPILVISGKDTRPSGIPDRFSGSISGNTASLTITGAQAEDEADYYCNSRDSSGYLVLFGGGTKLTVLGQPKAAPSVTLFPPSSEELQANKATLVCLISDFYPGAVTVAWKADSSPVKAGVETTTPSKQSNNKYAASSYLSLTPEQWKSHKSYSCQVTHEGSTVEKTVAPTECS
B3: 98C01 (IgG) (antibody)
heavy: not shown
light: SYELTQPPSVSVALGQTARITCGGNNIENKNVHWYQQKPGQAPVLVIYRDSNRPSGIPERFSGSNSGNTATLSINRAQAGDEADYYCQVWDSNTVVFGGGTKLTVLGQPKAAPSVTLFPPSSEELQANKATLVCLISDFYPGAVTVAWKADSSPVKAGVETTTPSKQSNNKYAASSYLSLTPEQWKSHKSYSCQVTHEGSTVEKTVAPTECS
B4: 98E10 (IgG) (antibody)
heavy: not shown
light: B3 light with P8L, K38M, S73T, L103V
B5: 30F02 (IgG) (antibody)
heavy: not shown
light: B3 light with E3V, P8L, E28G, N29D, Y48S, S73T, N75S, A83S, N93S, L103V
B6: 85F10 (IgG) (antibody)
heavy: not shown
light: B3 light with P8L, Y48K, F61L, S73T, N75S, N93S
B7: 85F12 (IgG) (antibody)
heavy: not shown
light: SSELTQPPSVSVSPGQTASITCSGDKLGDKYACWYQQKAGQSPVVVIYQDRKRPSGIPERFSGSNSGNTATLTISGTQAMDEADYYCQTWDRRTAVFGGGTKLTVLGQPKAAPSVTLFPPSSEELQANKATLVCLISDFYPGAVTVAWKADSSPVKAGVETTTPSKQSNNKYAASSYLSLTPEQWKSHKSYSCQVTHEGSTVEKTVAPTECS
B8: 30F02 (FcFab) (antibody)
chain 1: EPKSSDKTHTCPPCPAPPVAGPSVFLFPPKPKDTLMISRTPEVTCVVVDVSHEDPEVKFNWYVDGVEVHNAKTKPREEQYNSTYRVVSVLTVLHQDWLNGKEYKCAVSNKALPSSIEKTISKAKGQPREPQVYTLPPSREEMTKNQVSLTCLVKGFYPSDIAVEWESNGQPENNYKTTPPVLDSDGSFFLYSKLTVDKSRWQQGNVFSCSVMHEALHNHYTQKSLSLSPGAGGGGSGGGGSGGGGSQLQLQESGPGLVKPSETLSLTCTVSGASISSSNHYWGWGWIRQPPGKGLEWIGSIYYSGNTYYNPSLKSRVTISVDTSKNQFSLKLSSVTAADTAVYYCARHRGSYFFDHWGQGTLVTVSSASTKGPSVFPLAPSSKSTSGGTAALGCLVKDYFPEPVTVSWNSGALTSGVHTFPAVLQSSGLYSLSSVVTVPSSSLGTQTYICNVNHKPSNTKVDKRVEPKSC
chain 2: B3 light with E3V, P8L, E28G, N29D, Y48S, S73T, N75S, A83S, N93S, L103V
B9: 85F10 (FcFab) (antibody)
chain 1: EPKSSDKTHTCPPCPAPPVAGPSVFLFPPKPKDTLMISRTPEVTCVVVDVSHEDPEVKFNWYVDGVEVHNAKTKPREEQYNSTYRVVSVLTVLHQDWLNGKEYKCAVSNKALPSSIEKTISKAKGQPREPQVYTLPPSREEMTKNQVSLTCLVKGFYPSDIAVEWESNGQPENNYKTTPPVLDSDGSFFLYSKLTVDKSRWQQGNVFSCSVMHEALHNHYTQKSLSLSPGAGGGGSGGGGSGGGGSEVQLLESGAGLLKPSETLSLTCAVYGGSFSDYYWSWIRQPPGKGLEWIGEINHSGSTNYNPSLKSRVTISVDTSKNQFSLKLSSVTAADTAVYYCARKRGANFFDDWGQGTLVTVSSASTKGPSVFPLAPSSKSTSGGTAALGCLVKDYFPEPVTVSWNSGALTSGVHTFPAVLQSSGLYSLSSVVTVPSSSLGTQTYICNVNHKPSNTKVDKRVEPKSC
chain 2: B3 light with P8L, Y48K, F61L, S73T, N75S, N93S
B10: 85F12 (FcFab) (antibody)
chain 1: EPKSSDKTHTCPPCPAPPVAGPSVFLFPPKPKDTLMISRTPEVTCVVVDVSHEDPEVKFNWYVDGVEVHNAKTKPREEQYNSTYRVVSVLTVLHQDWLNGKEYKCAVSNKALPSSIEKTISKAKGQPREPQVYTLPPSREEMTKNQVSLTCLVKGFYPSDIAVEWESNGQPENNYKTTPPVLDSDGSFFLYSKLTVDKSRWQQGNVFSCSVMHEALHNHYTQKSLSLSPGAGGGGSGGGGSGGGGSQVQLQQSGPGLVKPSQTLSLTCAISGDSVSSNSAVWNWIRQSPSRGLEWLGRTDYRSKWNNDYAVSVKSRITINPDTSKNQFSLQLNSVTPEDTAVYYCARGDAGMASFDYWGQGTLVTVSSASTKGPSVFPLAPSSKSTSGGTAALGCLVKDYFPEPVTVSWNSGALTSGVHTFPAVLQSSGLYSLSSVVTVPSSSLGTQTYICNVNHKPSNTKVDKRVEPKSC
chain 2: B7 light
B11: 68F03 (IgG) (antibody)
heavy: not shown
light: B3 light with Y2F, P8L, N25I, W34Y, S51T, S73T, N75S, V96I, L103V

What follows are binders tested against T1, mouse OX40L (assay: flow cytometry on CHO-S cells / ELISA on recombinant protein (sentence does not say which)).

binding result	Binder
no binding	B1
no binding	B2
no binding	B3
no binding	B4
no binding	B5
no binding	B6
no binding	B7

What follows are binders tested against T2, AVI-GST-His6-hOX40L (assay: cell-based or functional assay).

OX40L neutralization/OX40-HEK Reporter IC50	Binder
52.8 nM	B8
> 161 nM	B9
> 161 nM	B10

These binders were tested against T3, recombinant human OX40L protein (R&D …) (assay: cell-based or functional assay).

Primary T cell activation assay IC50	Binder
2.9 nM	B8
6.3 nM	B9
> 161 nM	B10

Biological target: T4, recombinant cynomolgus monkey OX40L …
Assay: flow cytometry on CHO-S-OX40L cells / ELISA on recombinant OX40L (sentence does not say which)

binding result	Binder
binds	B1
binds	B2
binds	B3
binds	B4
binds	B5
binds	B6
binds	B7

Each binder was assayed against T3, recombinant human OX40L protein (R&D …) (assay: SPR steady state, Biacore T200; OX40L immobilised on CM5, antibody in solution).
Experimental: (§1) Recombinant OX40L proteins (human OX40L protein, R&D systems, cat. #1054-OX; cynomolgus monkey OX40L, Novoprotein cat. #CP72) were immobilized onto Biacore CM5 sensor chips and anti-OX40L antibodies were bound to this surface at a range of concentrations. The response at steady state was measured with a Biacore T200 instrument (GE Healthcare) and plotted against the concentration of antibody and fit to a 1:1 binding model. The steady state KD was determined as the antibody concentration at a response equal to half the maximal response (Rₘₐₓ).
Steady state affinity assay was performed as described in section 1.1.7 of Example 1.

Kd	Binder
39.5 nM	B1
31.6 nM	B2
17.7 nM	B3
25.8 nM	B11
32.8 nM	B4
53.9 nM	B5
28.2 nM	B6
75.6 nM	B7

Biological target: T2, AVI-GST-His6-hOX40L
Assay: cell-based or functional assay
Remark: another data set of the same source

OX40L neutralization/OX40-HEK Reporter IC50	Binder
17.7 nM	B1
4.4 nM	B2
3.6 nM	B3
5.7 nM	B11
5.4 nM	B4
72.7 nM	B5
54.6 nM	B6

Biological target: T3, recombinant human OX40L protein (R&D …)
Assay: cell-based or functional assay
Remark: another data set of the same source

Primary T cell activation assay IC50	Binder
8.8 nM	B1
10.7 nM	B2
12.9 nM	B3
18.8 nM	B11
8.8 nM	B4
12.4 nM	B5

Each binder was assayed against T3, recombinant human OX40L protein (R&D …) (assay: SPR steady state, Biacore T200; OX40L immobilised on CM5, FcFab in solution).
Experimental: as §1
As with the IgG clones, binding affinity to human OX40L was determined for all twelve FcFabs using steady state affinity assay as described in section 1.1.7 of Example 1. […]

Kd	Binder
56 nM	B8
50.1 nM	B9
34.1 nM	B10
